Three molecules from patent publication US20240132575A1 (MEMO THERAPEUTICS, published 2024) can be followed below.

Substitutions are numbered along the chain they refer to. Where two headings read alike, the source gives them in different places.

In assay [1] the target is T1, BKV serotype Ib VP1 on BK pseudovirus (VP1-Ib) (BK virus serotype Ib, UniProt P03088 1-362).
T1 chain: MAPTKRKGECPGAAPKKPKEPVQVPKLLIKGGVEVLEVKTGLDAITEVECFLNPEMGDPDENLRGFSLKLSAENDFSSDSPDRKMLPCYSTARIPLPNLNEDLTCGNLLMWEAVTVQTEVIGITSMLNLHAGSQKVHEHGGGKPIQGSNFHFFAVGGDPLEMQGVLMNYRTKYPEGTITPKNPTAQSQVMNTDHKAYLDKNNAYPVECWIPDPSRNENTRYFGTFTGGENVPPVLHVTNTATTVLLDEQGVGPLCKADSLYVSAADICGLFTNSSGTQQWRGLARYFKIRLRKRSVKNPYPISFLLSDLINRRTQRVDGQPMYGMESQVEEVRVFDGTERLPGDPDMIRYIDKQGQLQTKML
Nature of the assay: cell-based or functional assay.

Assay [2] addresses T2, BKV serotype II VP1 on BK pseudovirus (VP1-II) (BK virus serotype II, UniProt P14996 1-362).
T2 chain: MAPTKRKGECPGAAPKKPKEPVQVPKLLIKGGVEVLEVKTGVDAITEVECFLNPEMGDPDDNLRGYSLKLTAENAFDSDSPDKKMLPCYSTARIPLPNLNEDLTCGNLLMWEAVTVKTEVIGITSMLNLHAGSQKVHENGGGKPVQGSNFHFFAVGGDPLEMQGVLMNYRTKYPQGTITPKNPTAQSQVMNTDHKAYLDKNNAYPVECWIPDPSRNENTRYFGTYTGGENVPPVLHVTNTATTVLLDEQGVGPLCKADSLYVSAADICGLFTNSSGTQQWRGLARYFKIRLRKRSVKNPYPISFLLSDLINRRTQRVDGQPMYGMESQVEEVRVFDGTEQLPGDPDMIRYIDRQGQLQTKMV
Kind of assay: cell-based or functional assay.

Assay [3] addresses T3, BKV serotype III VP1 on BK pseudovirus (VP1-III) (BK virus serotype III, UniProt P14996 1-362).
T3 sequence: T2 chain with L68Q, K69H, T71S, D77E, K83R
Nature of the assay: cell-based or functional assay.

Assay [4] concerns the target T4, BKV serotype IV VP1 on BK pseudovirus (VP1-IVc) (BK virus serotype IV, UniProt P14996 1-362).
T4 chain: T2 chain with D61N, N62D, K69R, N74T, K83R, V145I, Q175E, I178V, R215K, A284P
Nature of the assay: cell-based or functional assay.

Assay [5] concerns the target T5, BKV serotype Ia VP1 on BK pseudovirus (VP1-Ia) (BK virus serotype Ia, UniProt P03088 1-362).
T5 chain: T1 chain with L42V, D82E, E175D, I210V
Kind of assay: cell-based or functional assay.

In assay [6] the target is T1, BKV serotype Ib VP1 on BK pseudovirus …. Nature of the assay: cell-based or functional assay.
Assay [7] has as its target T2, BKV serotype II VP1 on BK pseudovirus …. Nature of the assay: cell-based or functional assay.
For assay [8], the target named is T3, BKV serotype III VP1 on BK pseudovirus …. Kind of assay: cell-based or functional assay. The source holds these as a separate data set.
In assay [9] the target is T4, BKV serotype IV VP1 on BK pseudovirus …. Nature of the assay: cell-based or functional assay.
In assay [10] the target is T5, BKV serotype Ia VP1 on BK pseudovirus …. Kind of assay: cell-based or functional assay.
Assay [11] concerns the target T6, JCV VP1 pentamer (JC virus, UniProt P03089 23-292).
T6 construct: also called JC-VP1; VP1 of the JC virus
Kind of assay: ELISA on coated JCV-VP1 pentamer. On the technique in general: In an ELISA, binding on a coated surface is turned into a signal by an enzyme label.

Assay [12] addresses T7, BKV serotype II VP1 pentamer (VP1-II) (BK virus serotype II, UniProt P14996 31-300).
T7 construct: VP1 pentamer construct; also called BKV-VP1 serotype II
T7 chain: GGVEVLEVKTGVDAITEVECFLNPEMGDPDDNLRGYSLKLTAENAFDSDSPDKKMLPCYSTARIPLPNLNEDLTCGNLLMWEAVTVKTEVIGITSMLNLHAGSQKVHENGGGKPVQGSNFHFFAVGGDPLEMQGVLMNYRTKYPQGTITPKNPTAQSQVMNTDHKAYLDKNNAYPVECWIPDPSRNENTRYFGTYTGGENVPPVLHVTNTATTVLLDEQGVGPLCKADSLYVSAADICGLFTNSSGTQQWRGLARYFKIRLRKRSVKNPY
Nature of the assay: ELISA, VP1 pentamer coated, IgG titrated (EC50E).
Experimental: (§1) The binding of anti-BK virus antibodies to BKV-VP1 pentamers was analyzed by ELISA. […] Antibodies were serially diluted in PBS with 0.5% skim milk powder and added to the antigen-coated plates for 1.5 h. […] Plates were washed three times with PBS containing 0.05% Tween 20. The reaction was developed using 30 μl/well TMB liquid substrate (Sigma-Aldrich, #T0440) and stopped with 15 μl/well H₂SO₄. […] Data were fitted and apparent EC50 ELISA values (EC50E) were determined by three-parameter analysis in GraphPad Prism (GraphPad Software).

For assay [13], the target named is T8, BKV serotype III VP1 pentamer (VP1-III) (BK virus serotype III, UniProt P14996 31-300).
T8 construct: also called BKV-VP1 serotype III
T8 sequence: T7 chain with L38Q, K39H, T41S, D47E, K53R
Kind of assay: ELISA, VP1 pentamer coated, IgG titrated (EC50E).
Experimental: as §1

For assay [14], the target named is T9, BKV serotype IV VP1 pentamer (VP1-IV) (BK virus serotype IV, UniProt P14996 31-300).
T9 construct: also called BKV-VP1 serotype IV
T9 chain: T7 chain with D31N, N32D, K39R, N44T, K53R, V115I, Q145E, I148V, A254P, L261M
Kind of assay: ELISA, VP1 pentamer coated, IgG titrated (EC50E).
Experimental: as §1

For assay [15], the target named is T10, BKV serotype I VP1 pentamer (VP1-I) (BK virus serotype I, UniProt P03088 31-300).
T10 construct: also called BKV-VP1 serotype I
T10 chain: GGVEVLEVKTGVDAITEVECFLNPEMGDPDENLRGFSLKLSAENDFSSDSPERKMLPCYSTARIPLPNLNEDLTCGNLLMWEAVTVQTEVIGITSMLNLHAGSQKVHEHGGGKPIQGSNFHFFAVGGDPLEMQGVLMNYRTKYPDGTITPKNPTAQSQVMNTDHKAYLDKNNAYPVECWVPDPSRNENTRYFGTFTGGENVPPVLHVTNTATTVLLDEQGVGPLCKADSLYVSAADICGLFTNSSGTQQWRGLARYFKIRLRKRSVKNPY
Nature of the assay: ELISA, VP1 pentamer coated, IgG titrated (EC50E).
Experimental: as §1

Assay [16] concerns the target T7, BKV serotype II VP1 pentamer (VP1-II). Kind of assay: ELISA, VP1 pentamer coated, IgG titrated (EC50E).
Experimental: as §1
In assay [17] the target is T8, BKV serotype III VP1 pentamer (VP1-III). Nature of the assay: ELISA, VP1 pentamer coated, IgG titrated (EC50E). This is another data set of the same source.
Experimental: as §1

T6 sequence (P03089 23-292 limits assumed): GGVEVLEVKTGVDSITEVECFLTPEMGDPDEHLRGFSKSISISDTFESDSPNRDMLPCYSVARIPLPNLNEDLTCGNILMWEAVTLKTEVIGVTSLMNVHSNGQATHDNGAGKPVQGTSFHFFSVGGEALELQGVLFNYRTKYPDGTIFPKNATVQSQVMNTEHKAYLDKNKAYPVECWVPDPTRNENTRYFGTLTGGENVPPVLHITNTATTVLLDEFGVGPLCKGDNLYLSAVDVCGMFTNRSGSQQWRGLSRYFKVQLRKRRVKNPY

B1: comparative antibody P8D11 (WO 2017/046676) (antibody, human IgG1, lambda, V domains shown)
VH: QVQLVESGGTLVQPGGSLRLSCAASGFTFNNYWMTWVRQAPGKGLEWVANIKKDGSEKYYVDSVRGRFTISRDNAKNSLFLQMNSLRPEDTAVYFCATVRSGRYFALDDWGQGTLVTVSS
VL: QSVLTQPPSVSVAPGKTARITCGGDNIGSRPVHWYQQKPGQAPILVVYDDSNRPSGIPERFSGSNSGNTATLTISRVEAGDEADYYCQVWSSSTDHPFGGGTKVTVLG
notes: also called BM2
Regarding B1, the “IC50 (nM), neutralization of BK-Pseudovirus (NanoLuc luciferase, 293TT cells)” value (“IC50 (nM), neutralization” for short) amounted to 0.392 nM in [1]; 0.565 nM in assay [2]; 0.176 nM in [3]; 2.91 nM in assay [4]; 0.391 nM in [5]; 0.392 nM in assay [6]. The “IC50 (nM), neutralization” value came out at 0.565 nM in [7], 0.176 nM in assay [8], 2.91 nM in assay [9] and 0.391 nM in assay [10]. Moreover, the binding result in assay [11] is listed as “binds”.

B2: antibody 336F07 (antibody, human IgG1, kappa, V domains shown)
VH: EEPLLESGGGLVQPGGSLRLSCAASGFTFRLYAMNWVRQAPGKGLEWVSLISGSGTATYYADSVTGRFSISRDNYKNRVYLQMDSLRADDTATYYCAKTYPTWGGVVIGAIDVWGQGTTVTVSS
VL: DIQMTQSPSTLSASVGDRVTITCRASQSIQRWLAWHQQKPGRAPKVLIHDASTLESGVPSRFSGSGSGTEFTLTISSLQPDDFATYYCQQYNGHASTFGPGTKVDIKR
notes: also called 336FC07
As usually defined, the EC50 is the concentration that produces a half-maximal response. The low end stands for an effect from little substance, the high end for a need for much substance. In the case of B2, the “IC50 (nM), neutralization” value in [6] came to 0.103 nM; in assay [7], 0.02 nM; in assay [8], 0.019 nM; in [9], 0.018 nM; in assay [10], 0.094 nM. The binding result in [11] is given as “no binding”. The EC50 in assay [12] turned out to be 0.03 nM; in assay [13] it was 0.02 nM; in [14], 0.03 nM.

B3: antibody 319C07 (antibody, human IgG1, kappa, V domains shown)
VH: QVQLQQWGAGLLKPSETLSLTCAVYRGSFSAYYWTWFRQPPGKGLEWIGEINHRGYTNYNPSLRGRVSISVDTSKKQFSLKLRSVNAADTAVYYCATLRSTSGWHDYFDYWGQGTLVTVSS
VL: EIVLTQSPGTLSLSPGERATLSCRASQSVSSSYLAWYQQTPGQAPRLLIYGASSRATGIPDRFSGSGSGTDFTLTISRLEPEDFVVYFCLQYGSSPLTFGPGTKVDIKR
notes: also called 319C7
In the case of B3, the “IC50 (nM), neutralization” value in assay [1] was found to be 0.007 nM; in assay [2], 0.01 nM; in [3], 0.058 nM; in assay [4] it was 0.032 nM; in assay [5], 0.007 nM. In addition, the binding result in [11] was “no binding”. In addition, the concentration for a half-maximal effect (EC50) worked out at 0.05 nM in assay [15], 0.06 nM in assay [16] and 0.06 nM in [17].
